The values below come from US20230002480A1.

What all share (assay): cell-based or functional assay
Assay [1] addresses HIV-1 Env of pseudovirus Q23.17 (HIV-1).
For assay [2], the target named is HIV-1 Env of pseudovirus 6041.v3.c23 (HIV-1).
Assay [3] has as its target HIV-1 Env of pseudovirus 3415.v1.c1 (HIV-1).
The target in assay [4] is HIV-1 Env of pseudovirus 3817.v2.c59 (HIV-1).
Assay [5] has as its target HIV-1 Env of pseudovirus REJO4541.67 (HIV-1).
Assay [6] concerns the target HIV-1 Env of pseudovirus X2131_C1_B5 (HIV-1).
The target of assay [7] is HIV-1 Env of pseudovirus 6240_08_TA5_4622 (HIV-1).

As to 3BNC117 (antibody), the neutralization IC50 came out at 0.005 µg/mL in assay [1], 0.17 µg/mL in assay [3], 0.01 µg/mL in assay [5] and 0.33 µg/mL in assay [7]. For the same substance, the neutralization IC80 in assay [1] was 0.02 µg/mL; in assay [3], 0.47 µg/mL; in assay [5], 0.05 µg/mL; in assay [7], 1.17 µg/mL. Moreover, the IC50, titer in TZM.bl cells in assay [2] was found to be 0.01 µg/mL; in assay [4], 0.15 µg/mL; in assay [6] it was 0.43 µg/mL. For the same substance, the IC80, titer in TZM.bl cells is 0.07 µg/mL in assay [2], 0.52 µg/mL in assay [4] and 1.96 µg/mL in assay [6].
Regarding 8ANC195 (antibody), the neutralization IC50 is 2.55 µg/mL in assay [1], 0.08 µg/mL in assay [5] and more than 50 µg/mL in assay [7]. In addition, the figures for the neutralization IC80 in assay [1], in assay [5] and in assay [7] were 2.55 µg/mL, 0.68 µg/mL and more than 50 µg/mL, respectively. Besides, the IC50, titer in TZM.bl cells in assay [2] was more than 50 µg/mL; in assay [4], 1 µg/mL; in assay [6] it was 3.47 µg/mL. The values for the IC80, titer in TZM.bl cells in assay [2], in assay [4] and in assay [6] were more than 50 µg/mL, 5.3 µg/mL and more than 50 µg/mL, respectively.
On to N49P6 (antibody), for which the IC50 (as a rule, the concentration at which inhibition is half-maximal) in assay [1] was 0.052 µg/mL; in assay [2], 5.53 µg/mL; in assay [3], 0.188 µg/mL; in assay [4], 16.9 µg/mL; in assay [5] it was 0.066 µg/mL; in assay [6] it was 0.174 µg/mL. This substance had an IC50 in assay [7] of 0.567 µg/mL. Also, the IC80 (commonly the point of the concentration-response curve where the effect stands at 80%) in assay [1] was 0.185 µg/mL; in assay [2], 43.2 µg/mL; in assay [3] it was 0.648 µg/mL; in assay [4], more than 50 µg/mL; in assay [5], 0.215 µg/mL; in assay [6] it was 0.72 µg/mL. The same substance gave an IC80 in assay [7] of 1.76 µg/mL. Moreover, the MPI in assay [1] is 100; in assay [2], 88; in assay [3] it was 100; in assay [4], 78; in assay [5], 100; in assay [6], 100. In assay [7], this substance came in with an MPI of 100.
Consider NIH 45-46 (antibody), for which the neutralization IC50 in assay [1] is 0.14 µg/mL; in assay [3], 0.07 µg/mL; in assay [5], 0.003 µg/mL; in assay [7], 0.44 µg/mL. For the same substance, the neutralization IC80 in assay [1] is 0.6 µg/mL; in assay [3], 0.07 µg/mL; in assay [5], 0.01 µg/mL; in assay [7] it was 1.55 µg/mL. Moreover, the IC50, titer in TZM.bl cells was 0.01 µg/mL in assay [2], more than 50 µg/mL in assay [4] and 0.2 µg/mL in assay [6]. For the same substance, the IC80, titer in TZM.bl cells is 0.04 µg/mL in assay [2], more than 50 µg/mL in assay [4] and 0.9 µg/mL in assay [6].
Turning to PGDM1400 (antibody), the IC50 in assay [1] is less than 0.001 µg/mL; in assay [5], 0.028 µg/mL; in assay [7] it was more than 50 µg/mL. The IC80 was 0.003 µg/mL in assay [1], 0.992 µg/mL in assay [5] and more than 50 µg/mL in assay [7]. Also, the figures for the IC50, titer in TZM.bl cells in assay [2], in assay [4] and in assay [6] were 0.013 µg/mL, more than 50 µg/mL and 0.128 µg/mL, respectively. The IC80, titer in TZM.bl cells in assay [2] was 0.289 µg/mL; in assay [4], more than 50 µg/mL; in assay [6], 0.568 µg/mL.
Turning to PGT121 (antibody), the IC50 was less than 0.001 µg/mL in assay [1]; more than 50 µg/mL in assay [2]; 18.9 µg/mL in assay [4]; 4.77 µg/mL in assay [5]; 0.004 µg/mL in assay [6]; 0.033 µg/mL in assay [7]. Also, the IC80 in assay [1] was 0.005 µg/mL; in assay [2], more than 50 µg/mL; in assay [4], more than 50 µg/mL; in assay [5] it was more than 50 µg/mL; in assay [6], 0.023 µg/mL; in assay [7], 0.127 µg/mL.
Take PGT128 (antibody): the IC50 in assay [1] was 0.009 µg/mL; in assay [5], more than 50 µg/mL; in assay [7], 0.019 µg/mL. Further, the figures for the IC80 in assay [1], in assay [5] and in assay [7] were 0.024 µg/mL, more than 50 µg/mL and 0.055 µg/mL, respectively. For the same substance, the IC50, titer in TZM.bl cells in assay [2] was more than 50 µg/mL; in assay [4], 0.003 µg/mL; in assay [6] it was more than 50 µg/mL. The IC80, titer in TZM.bl cells is more than 50 µg/mL in assay [2], 0.023 µg/mL in assay [4] and more than 50 µg/mL in assay [6].
For PGT145 (antibody), the IC50 in assay [1] is 1.32 µg/mL; in assay [5], less than 0.001 µg/mL; in assay [7], more than 50 µg/mL. The IC80 in assay [1] is more than 50 µg/mL; in assay [5], 0.001 µg/mL; in assay [7], more than 50 µg/mL. The IC50, titer in TZM.bl cells is 0.964 µg/mL in assay [2], more than 50 µg/mL in assay [4] and 0.018 µg/mL in assay [6]. Also, the IC80, titer in TZM.bl cells in assay [2] is more than 50 µg/mL; in assay [4] it was more than 50 µg/mL; in assay [6] it was 0.065 µg/mL.
Consider PGT151 (antibody), for which the results for the IC50 in assay [1], in assay [5] and in assay [7] were 0.007 µg/mL, 0.018 µg/mL and 0.046 µg/mL, respectively. Besides, the values for the concentration for an effect of 80% (IC80) in assay [1], in assay [5] and in assay [7] were 0.045 µg/mL, 0.119 µg/mL and 0.42 µg/mL, respectively. Also, the IC50, titer in TZM.bl cells is 0.004 µg/mL in assay [2], more than 50 µg/mL in assay [4] and 0.007 µg/mL in assay [6]. Moreover, the IC80, titer in TZM.bl cells is 0.024 µg/mL in assay [2], more than 50 µg/mL in assay [4] and 0.036 µg/mL in assay [6].
Take VRC01 (antibody): the IC50, titer in TZM.bl cells in assay [1] is 0.09 µg/mL; in assay [2], 0.02 µg/mL; in assay [3], 0.06 µg/mL; in assay [4] it was more than 50 µg/mL; in assay [5], 0.06 µg/mL; in assay [6] it was 0.51 µg/mL. Moreover, the IC50, titer in TZM.bl cells in assay [7] was found to be 0.61 µg/mL. The IC80, titer in TZM.bl cells was 0.261 µg/mL in assay [1]; 0.08 µg/mL in assay [2]; 0.15 µg/mL in assay [3]; more than 50 µg/mL in assay [4]; 0.25 µg/mL in assay [5]; 1.54 µg/mL in assay [6]. The same substance yielded an IC80, titer in TZM.bl cells in assay [7] of 1.82 µg/mL.
As for VRC07 (antibody), the neutralization IC50 in assay [1] is 0.081 µg/mL; in assay [3], 0.036 µg/mL; in assay [5], 0.011 µg/mL; in assay [7], 0.448 µg/mL. Moreover, the neutralization IC80 worked out at 0.236 µg/mL in assay [1], 0.152 µg/mL in assay [3], 0.037 µg/mL in assay [5] and 1.54 µg/mL in assay [7]. Besides, the IC50, titer in TZM.bl cells came out at 0.018 µg/mL in assay [2], 1.9 µg/mL in assay [4] and 0.219 µg/mL in assay [6]. Moreover, the results for the IC80, titer in TZM.bl cells in assay [2], in assay [4] and in assay [6] were 0.058 µg/mL, 19.8 µg/mL and 1.03 µg/mL, respectively.
